This test addresses HER-2 (human (endogenous in SKBR3 and T47D)) (UniProt P04626).

eSrtA-conjugated cFRP5-DM1 (antibody) showed an IC50 of killing of HER-2-overexpressing SKBR3 cells (luminescent cell viability assay; Fig 4A) of 0.067 µg/mL.
Take “eSrtA-conjugated cFRP5-maytansine (antibody)”: the IC50 of killing of HER-2-overexpressing SKBR3 cells (luminescent cell viability assay; Fig 4A) was found to be 0.0779 µg/mL.
